Experimental data taken from US6991908 (Takeda / Millennium, dated 2006).
Values belong to the binder of their own block, whether it stands above or below them. Positions of bridges follow the written chain, without caps; N, C: chain ends. No end group written: not given here.

Columns and labels:
rat SLC-1 = rat SLC-1 (rat, UniProt P97639 1-353); test: cell-based or functional assay
human SLC-1 = target: T1, human SLC-1 (human); test: radioligand competition against [125I]-labeled MCH(4-19) on human SLC-1-expression CHO cell membrane fraction (2.5 µg/ml), filtration, γ-counter
T1 construct: also called hSLC-1; human SLC-1(S)

agonist activity, GTPγS binding assay (fold decrease against MCH) (rat SLC-1): ~200 times
Binder: CMLGRVYRPCWQV (disulfide 1-10) [Des-[Asp1, Phe2, Asp3, Met4, Leu5, Arg6]-MCH (MCH(7-19))]

agonist activity, GTPγS binding assay (fold decrease against MCH) (rat SLC-1): ~10 times
Binder: RCMLGRVYRPCWQV (disulfide 2-11) [Des-[Asp1, Phe2, Asp3, Met4, Leu5]-MCH (MCH(6-19))]

IC50 (human SLC-1): 0.2 nM
B1: melanin concentrating hormone (MCH), rat MCH (ligand)
peptide: DFDMLRCMLGRVYRPCWQV
modifications: disulfide 7-16
notes: also called synthetic MCH; synthetic rat MCH
